From the supplement of paper PMC10724198
± gives the standard deviation of the averaged measurements.

These sequences were tested on Saccharomyces cerevisiae (assay: protein stability index of tFT-peptide fusion (C-terminal peptide) (PSI (0-1 scale)); higher = more stable (slower turnover)). Settings: genetic background: wild type; temperature: 30 C.
Experimental: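 Multiplexed protein stability (MPS) profiling in S. cerevisiae. Random 12-aa peptides (tFT-X12 library) are fused to the C-terminus of a sfGFP-mCherry tandem fluorescent timer, after mCherry and a GGGS linker. Cells are FACS-sorted into 8 mCherry/sfGFP bins and deep-sequenced. The protein stability index (PSI) is the read-weighted bin average, scaled from 0 (unstable) to 1 (stable). Only peptides with >10 reads are reported; cells were grown at 30 °C in SC-His with glucose.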
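Further: PSI is a weighted mean of sequencing reads over stability bins, variants kept only with over 10 reads, mCherry proximal and sfGFP distal, peptide attached via GGGS linker.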

In order of falling protein stability index:
1. FSGGPSTPPTWS  0.817 ± 0.01
2. FSPRHSPFSVAR  0.803 ± 0.05
3. FYVTRIGPLDMS  0.801 ± 0.023
4. GALANPLGHSHL  0.792 ± 0.11
5. FWPPPATSAAPC  0.79 ± 0.011
6. GARGGGRSRGTR  0.779 ± 0.091
7. FSLFSLPFPFPL  0.7752 ± 0.0015
8. GARRVVFSSVLQ  0.774 ± 0.13
9. FSISCFRVSSDF  0.761 ± 0.032
10. GAWWRMEQAFGV  0.757 ± 0.034
11. FPSPLLPYPLLP  0.747 ± 0.052
12. GASCRDCVTRGS  0.745 ± 0.042
13. FPVSPFPPPPSS  0.742 ± 0.16
14. FPPTALESMPSS  0.737 ± 0.042
15. FVPPGTTSPNTT  0.731 ± 0.059
16. FWHERVSSTVKR  0.731 ± 0.025
17. FRSFLDHPRSPC  0.729 ± 0.029
18. FVFAYLPSYEAM  0.729 ± 0.023
19. GAWASLPGLISP  0.729 ± 0.058
20. FRVFLGHLITRK  0.727 ± 0.039
21. GAVTNHAMASRP  0.725 ± 0.035
22. FSPPTLSLPGPI  0.721 ± 0.0083
23. FVAGFAGGAVGV  0.72 ± 0.0078
24. FPVGVRLNQNET  0.718 ± 0.017
25. FQNFTLSQEQSE  0.717 ± 0.014
26. FSETDSWCQARS  0.717 ± 0.013
27. FQGALFTEVVES  0.716 ± 0.043
28. FSLLTFPPSSPT  0.716 ± 0.016
29. GALGCHPGLPSP  0.714 ± 0.025
30. FSVGSPLSSPGI  0.713 ± 0.04
31. GARERRRRRRRP  0.713 ± 0.025
32. FWGCCGGVGPRG  0.709 ± 0.0077
33. GAEQSTDEFIRG  0.7058 ± 0.0012
34. FVSPVPPRRVGA  0.704 ± 0.037
35. FSCLRSINRDVG  0.702 ± 0.044
36. FSYPPSLVPFCS  0.702 ± 0.019
37. FPSLLFSSPSAF  0.7 ± 0.038
38. FSLPLSPRGDCP  0.6991 ± 0.0014
39. FYLRRNILGQDC  0.695 ± 0.0096
40. GAAGASCDCTGG  0.695 ± 0.07
41. FPPPPPHTPSSA  0.694 ± 0.057
42. GANLVTGKLTDG  0.693 ± 0.036
43. FTNDMSSGRVAI  0.692 ± 0.016
44. FPRLPSRPLSSL  0.6898 ± 0.0033
45. GASVWGRGTRKI  0.6902 ± 0.0059
46. GAGFCSGLRGAG  0.689 ± 0.088
47. FSMHFARFFSCS  0.687 ± 0.061
48. FTGYPKHTRLPY  0.687 ± 0.017
49. GATRCQTYPAGA  0.686 ± 0.04
50. FRPPVPPPPVLP  0.683 ± 0.012
51. GACWRDSHSGGD  0.683 ± 0.023
52. FVPRFPGTTINS  0.681 ± 0.049
53. GALIGNDGHVSG  0.679 ± 0.027
54. FTACSVCVETMN  0.678 ± 0.17
55. FVGAEWLLFYFS  0.677 ± 0.069
56. FSSGLAEVGVAR  0.676 ± 0.074
57. GAGGVGGTSGGK  0.675 ± 0.084
58. GAGVLTLDNRRV  0.674 ± 0.019
59. GAKSENSLTTVQ  0.673 ± 0.013
60. GAGAAVHRAAPG  0.672 ± 0.029
61. GATGGACGGWAG  0.67249 ± 0.00044
62. FTPPPPPPPPVL  0.6691 ± 0.0051
63. FWKSVMRYYFKR  0.669 ± 0.027
64. GASGGGQSSFGE  0.669 ± 0.013
65. FSTIWDRLLLTG  0.668 ± 0.083
66. FSSLHLTHELLS  0.664 ± 0.061
67. FYFLFVFICLRV  0.6642 ± 0.0062
68. FYPLPSYFAYPI  0.663 ± 0.022
69. FSHPQPLLPFPV  0.662 ± 0.0094
70. FRDLRSSVLVLP  0.6599 ± 0.0058
71. GCADNNRLGNVV  0.66 ± 0.011
72. GAWGFVWLGVGC  0.658 ± 0.031
73. FSKVLCSIVRGR  0.655 ± 0.015
74. FSVHVPPFPPVP  0.654 ± 0.038
75. GAEKGSVPGGDK  0.654 ± 0.05
76. GAKAARTTITSG  0.653 ± 0.026
77. FSCKGSYIFTRR  0.651 ± 0.012
78. GAGRAVRAFCVL  0.651 ± 0.02
79. GAGLWGGRGRRW  0.6489 ± 0.0063
80. FVSLVGGFVGTV  0.646 ± 0.037
81. FQEDSPVSQRYP  0.645 ± 0.041
82. GACIRLLPSFGY  0.6434 ± 0.0041
83. FYIQVFTPLGGS  0.639 ± 0.0097
84. GAVVLSRFRCLP  0.639 ± 0.035
85. GCAWGVKYEVIL  0.637 ± 0.05
86. FTKAVQVFLASV  0.635 ± 0.057
87. FRIVLIRASDPS  0.625 ± 0.032
88. GAQSAVLQNPPA  0.6238 ± 0.0042
89. GAGRGKEREYRP  0.61356 ± 0.00019
90. FRFVFFFRSGLV  0.595 ± 0.063
91. FRLPTCLLLFPF  0.594 ± 0.098
92. FRCPGFYVVIFP  0.582 ± 0.0092
93. FYSLFLPRPFLS  0.579 ± 0.024
94. FQAYPPFSLVPA  0.5533 ± 0.0029
95. FRVKVFGLPFWL  0.509 ± 0.028
96. FRLLLFPLPLSP  0.494 ± 0.011
97. FPSFSLIFFSLI  0.489 ± 0.074
98. FSAFFLFMFCFL  0.488 ± 0.025
